According to PMC5453957, “Bartnicki Filip 1”:

What was measured:
R6-PCNA = R6-PCNA (human, UniProt P12004 =RRRRRR+1-261, internal_change); test: pull-down; AS1 buffer; ITC: 50 mM phosphate pH 7.6, 207 mM NaCl, 25 C; pull-down: AS1 buffer (composition not given), 4 C, or ARGI buffer (50 mM Tris-HCl, 300 mM NaCl, 5 mM EDTA, 0.01% Tween 20, pH 7.5); conditions: protein: recombinant; tags: N-terminal R6; chain copies: 3; label: 5'-biotin (pull-down)
R6-GST [1] = biological target: T1, R6-GST (synthetic construct, UniProt P08515 =RRRRRR+1-218, internal_change); test: as above; conditions: protein: recombinant; tags: N-terminal R6 (CPP tag under study); chain copies: 2; label: 5'-biotin (pull-down)
Tat49-57-PCNA = Tat49-57-PCNA (human, UniProt P12004 =MRKKRRQRRRGGGGGGHPW+1-261, internal_change); test: as above; conditions: protein: recombinant; tags: N-terminal Tat49-57; chain copies: 3; label: 5'-biotin (pull-down)
R6-GST [2] = biological target: T1, R6-GST; test: ITC; 25 C; n 2.61; Table 1 dG -35.8 kJ/mol would fit about 532 nM (R6/R8 possibly swapped); ITC: 50 mM phosphate pH 7.6, 207 mM NaCl, 25 C; pull-down: AS1 buffer (composition not given), 4 C, or ARGI buffer (50 mM Tris-HCl, 300 mM NaCl, 5 mM EDTA, 0.01% Tween 20, pH 7.5); conditions: protein: recombinant; tags: N-terminal R6 (CPP tag under study); chain copies: 2; label: 5'-biotin (pull-down); four mfold structures predicted

Sequence of Tat49-57-PCNA (P12004 other isoform, or with tags, fused parts or gaps): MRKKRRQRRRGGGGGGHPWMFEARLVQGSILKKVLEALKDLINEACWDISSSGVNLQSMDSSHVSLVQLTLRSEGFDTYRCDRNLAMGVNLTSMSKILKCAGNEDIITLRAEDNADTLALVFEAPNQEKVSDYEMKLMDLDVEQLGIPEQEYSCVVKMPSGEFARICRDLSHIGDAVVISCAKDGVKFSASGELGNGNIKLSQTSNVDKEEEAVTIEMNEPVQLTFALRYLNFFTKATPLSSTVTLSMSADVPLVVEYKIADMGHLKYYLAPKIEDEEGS
Sequence of R6-PCNA (P12004 other isoform, or with tags, fused parts or gaps): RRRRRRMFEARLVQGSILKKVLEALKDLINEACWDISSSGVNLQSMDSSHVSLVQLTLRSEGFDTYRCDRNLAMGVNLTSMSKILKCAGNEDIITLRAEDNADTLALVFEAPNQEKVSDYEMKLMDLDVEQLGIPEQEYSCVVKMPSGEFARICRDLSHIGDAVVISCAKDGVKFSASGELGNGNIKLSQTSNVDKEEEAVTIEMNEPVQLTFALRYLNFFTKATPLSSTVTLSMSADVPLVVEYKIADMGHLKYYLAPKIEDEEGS

Binder	binding result (R6-PCNA)	binding result (R6-GST [1])	binding result (Tat49-57-PCNA)	Kd (R6-GST [2]) [nM]
reference aptamer (ssDNA) DNA: CATGCTTCCCCAGGGAGATGACTGACTGACTGACTGACTGACTGACTGACTGACTGACTGGAGGAACATGCGTCGCAAAC	no binding	no binding	no binding	–
CTTTGTAATTGGTTCTGAGTTCCGTTGTGGGAGGAACATG (ssDNA) [AR aptamer (24-10 nt 31-70; 5'/-30 and 3'/-10)]	–	–	–	943 ± 37
24-10 aptamer full length (ssDNA) DNA: CATGCTTCCCCAGGGAGATGGACGGCACGTCTTTGTAATTGGTTCTGAGTTCCGTTGTGGGAGGAACATGCGTCGCAAAC	binds	binds	binds	–
